According to the nanobody polyreactivity screen of Harvey et al. (2022):

Assay: yeast display, Sf9 membrane polyspecificity reagent, FACS + sequencing; frameworks hold sequencing errors
Outline: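 Using colony PCR, genes from sorted yeast display clones were amplified, then sequenced on MiSeq at 2 × 250 and filtered by CDR length. The clones had been stained with 10% biotinylated, detergent-solubilized Sf9 membrane reagent for 1 hour at 4 °C and sorted by FACS into low and high (top ~1%) gates on anti-HA and streptavidin fluorescence. Polyreactivity labels come from the gate of origin.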

Sequence	polyreactivity (PSR sort gate)
QVQLVESGGGLVQAGGSLRLSCAASGRIFNRNAMVWSRQAPGKERELVASISSGGRTNYADSVKGRFTISRDNAKNTVYLQMNSLKPEDTAVYYCAAKSPRILLDYWGQGTQVTVSS	low polyreactivity
QVQLVESGGGLVQAGGSLRLSCAASGRIFNRYAMGWYRQAPGKEREFVAAISVRGGTTYYADSVKGRFTISRDNAKNTVYLQMNSLKPEDTAVYYCAARKISKYDYWGQGTQVTVSS	high polyreactivity
QVQLVESGGGLVQAGGSLRLSCAASGRIFNRYAMGWYSQAPGKERELVARITSSGSTNYADSVKGRFTISRDNAKNTVYLQMNSLKPEDTAVYYCAARKLFIPKYYYWGQGTQVTVSS	high polyreactivity
QVQLVESGGGLVQAGGSLRLSCAASGRIFNSKAKGWYRQEPGKERELVAAISWSGGTTYYADSVKGRFTISRDNAKNTVYLQMNSLKPEDTAVYYCNADLWTSYFGRGDYWGQGTQVTVSS	low polyreactivity
QVQLVESGGGLVQAGGSLRLSCAASGRIFNSNAMGWYRQAPGKERELVAAISSSGTRTYYADSVKGRFTISRDNAKNTVYLQMNSLKPEDTAVYYCNTYYKYAVVPSGGYWGQGTQVTVSS	high polyreactivity
QVQLVESGGGLVQAGGSLRLSCAASGRIFNSNAMGWYRQAPGKERELVAAISWSGGTTYYADSVKGRFTISRDNAKNTVYLQMNSLKPEDTAVYYCNADLWTSYFGRGDYWGQGTQVTVSS	low polyreactivity
QVQLVESGGGLVQAGGSLRLSCAASGRIFNSYAMGWYRQAPGKERELVAAISRNGGITYYADSVKGRFTISRDNAKNTVYLQMNSLKAEATAVYYCNADSSRRRYSSDYWGQGTQVTVSS	high polyreactivity
QVQLVESGGGLVQAGGSLRLSCAASGRIFNVNAMGWYRQAPGKERELVAGITRSGGSTYYADSVKWRFTISRDNAKNTVYLQMNSLNPEDTAVYYCATQATPWYRYYYWGQGTQVTVSS	high polyreactivity
QVQLVESGGGLVQAGGSLRLSCAASGRIFNVYDMGRYRQAPGKERELVAAISSGANTNYADSVKGRFTISRDNAKNTVYLQMNSLKPEDTAVYYCNTEQFYDYDYTFDYWGQGTQVTVSS	low polyreactivity
QVQLVESGGGLVQAGGSLRLSCAASGRIFNWYAMGWYRQEPGKERELVAAISTDGSTYYADSVKGRFTISRDNAKNTVYLQMNSLKPEDTAVYYCAAVPGYTHLWGGPFDYWGQGTQVTVSS	low polyreactivity
QVQLVESGGGLVQAGGSLRLSCAASGRIFNYNAMGWYRQAPGKERELVATITYIGTGTYYADSVKGRFTISRDNAKNTVYLQMNSQKPDDTAVYYCAASYRSRVWWRFDYWGQGSQVTVSS	high polyreactivity
QVQLVESGGGLVQAGGSLRLSCAASGRIFNYYAMGWYRQAPGKERELVAAISKRGGRTYYADSVKGRFTISRDNAKNTVYLQMNSLKPEDTAVYYCNKGFLPSWFTYPYKYYYWGQGTQVTVSS	low polyreactivity
QVQLVESGGGLVQAGGSLRLSCAASGRIFNYYAMGWYRQAPGKERELVARITVGGRTYYADSVKGRFTISRDNAKNTVYLQMNSLKPEDTAVYYCAAVFPYHFGNMDYWGQGTQVTVSS	high polyreactivity
QVQLVESGGGLVQAGGSLRLSCAASGRIFPAYTMGWYRQAPGKERELVAAISRGGRTKYADSVKGRFTISRDNANNTVYLQLNSLKPEDTAVYYCDTVTTYGGVWYDYWGQGTQVTVSS	high polyreactivity
QVQLVESGGGLVQAGGSLRLSCAASGRIFPAYVRVWYRQAPGKERELVAAISDRGGSTYYADSVKGRFTISRDTAKHTVSLQMHRLKPEDTAVYYCAKGGEVSQGYTDDYDYWGQGTQVSVSS	low polyreactivity
QVQLVESGGGLVQAGGSLRLSCAASGRIFPDYDMGWYRQAPGKERELVAAITQRGGSTYADSVKGRFTISRDNAKNTVYLQMNSLKPEDTAVYYCAREYYEAYEYWGQGTQVTVSS	low polyreactivity
QVQLVESGGGLVQAGGSLRLSCAASGRIFPDYVMGWYRQAPGKEREFVAIISYSGVRTYYADSVKGRFTISRDNAKNTVYLQMNSLKPEDTAVYYCAADFKQKGHRTRTTYWGQGTQVTVSS	high polyreactivity
